Measured values taken from publication PMC3391258 (PLoS ONE, 2012).

T1: TolC with a hexahistidine-tag at the C-terminus (E. coli, UniProt P02930 23-493)
T1 construct: also called TolC-His; hexa-His-tagged wild-type TolC; not shown: His6, C-terminal, kept
T1 sequence (looked up): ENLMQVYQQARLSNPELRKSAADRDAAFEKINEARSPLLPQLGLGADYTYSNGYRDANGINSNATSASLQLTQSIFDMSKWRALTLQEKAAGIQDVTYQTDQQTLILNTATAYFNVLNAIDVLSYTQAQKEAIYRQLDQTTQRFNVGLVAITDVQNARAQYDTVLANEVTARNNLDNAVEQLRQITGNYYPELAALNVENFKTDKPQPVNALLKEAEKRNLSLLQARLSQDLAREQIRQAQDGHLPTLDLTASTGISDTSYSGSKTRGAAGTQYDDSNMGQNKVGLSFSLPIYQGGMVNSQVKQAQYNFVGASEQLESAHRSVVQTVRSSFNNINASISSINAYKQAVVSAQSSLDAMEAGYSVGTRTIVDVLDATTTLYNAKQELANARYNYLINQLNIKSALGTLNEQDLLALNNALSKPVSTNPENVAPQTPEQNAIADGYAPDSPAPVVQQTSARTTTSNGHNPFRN

B1: HlyD-R186A tagged with c-Myc at the C-terminus (natural protein)
chain: MKTWLMGFSEFLLRYKLVWSETWKIRKQLDTPVREKDENEFLPAHLELIETPVSRRPRLVAYFIMGFLVIAFILSVLGQVEIVATANGKLTLSGRSKEIKPIENSIVKEIIVKEGESVRKGDVLLKLTALGAEADTLKTQSSLLQARLEQIRYQILSRSIELNKLPELKLPDEPYFQNVSEEEVLALTSLIKEQFSTWQNQKYQKELNLDKKRAERLTILARINRYENVSRVEKSRLDDFRSLLHKQAIAKHAVLEQENKYVEAANELRVYKSQLEQIESEILSAKEEYQLVTQLFKNEILDKLRQTTDSIELLTLELEKNEERQQASVIRAPVSGKVQQLKVHTEGGVVTTAETLMVIVPEDDTLEVTALVQNKDIGFINVGQNAIIKVEAFPYTRYGYLVGKVKNINLDAIEDQKLGLVFNVIVSVEENDLSTGNKHIPLSSGMAVTAEIKTGMRSVISYLLSPLEESVTESLHER
notes: also called HlyD-R186A-C-myc
B2: HlyD-T197A tagged with c-Myc at the C-terminus (natural protein)
chain: MKTWLMGFSEFLLRYKLVWSETWKIRKQLDTPVREKDENEFLPAHLELIETPVSRRPRLVAYFIMGFLVIAFILSVLGQVEIVATANGKLTLSGRSKEIKPIENSIVKEIIVKEGESVRKGDVLLKLTALGAEADTLKTQSSLLQARLEQIRYQILSRSIELNKLPELKLPDEPYFQNVSEEEVLRLTSLIKEQFSAWQNQKYQKELNLDKKRAERLTILARINRYENVSRVEKSRLDDFRSLLHKQAIAKHAVLEQENKYVEAANELRVYKSQLEQIESEILSAKEEYQLVTQLFKNEILDKLRQTTDSIELLTLELEKNEERQQASVIRAPVSGKVQQLKVHTEGGVVTTAETLMVIVPEDDTLEVTALVQNKDIGFINVGQNAIIKVEAFPYTRYGYLVGKVKNINLDAIEDQKLGLVFNVIVSVEENDLSTGNKHIPLSSGMAVTAEIKTGMRSVISYLLSPLEESVTESLHER
notes: also called HlyD-T197A-C-myc

Target: T1, TolC with a hexahistidine-tag at the …
Test: cross-linking
Conditions: partners not purified

Binder | crosslinking to TolC, percent of that of wild-type HlyD
B1 | 10 % of wild-type HlyD
B2 | 48 % of wild-type HlyD
